Laboratory results: patent publication US20250228954A1, “Designing Antisense Oligonucleotide Delivery Peptides by Interpretable Machine Learning” (Sarepta Therapeutics, Inc., priority 2020, published 2025)

What was measured:
HeLa 654 cells [1] = experiment: Cytotoxicity by gated cell count and propidium iodide staining in flow cytometry; type: cell-based, human; conditions: at the concentrations tested in dose-response, 22 h
Excerpt: The different modules led to several noticeable trends in the level of cellular fluorescence (FIG. 6). When module 2 was DPV6, the overall construct consistently led to high fluorescence, regardless of which peptides were placed in module 3 and 4. However, when either pVEC or TP10 was placed in module 2, minor cellular fluorescence was observed. A gated cell count was used during flow cytometry as an indirect read-out to control for the toxicity of the compounds. Highly toxic compounds led to a reduction in overall cell count and non-viable cells were gated out based upon propidium iodide staining. In this experiment, it was observed that when the module 3 peptide was the nuclear localization sequence KRVK, lower cell counts were consistently observed.
In the same format as described above, HeLa 654 cells were treated with varying concentrations of Mach 2, 3, 4, and 7 for 22 hours and analyzed by flow cytometry.
(§1) HeLa 654 cells were maintained in MEM supplemented with 10% (v/v) fetal bovine serum (FBS) and 1% (v/v) penicillin-streptomycin at 37° C. and 5% CO2. Eighteen hours prior to treatment, the cells were plated at a density of 5,000 cells per well in a 96-well plate in MEM supplemented with 10% FBS and 1% penicillin-streptomycin. The day of the experiment, the 384 well plate containing the crude reaction mixtures in DMSO was diluted to 100 μM by the addition of 16.8 μL of PBS to the 3.2 μL reaction mixture. Then, each construct was diluted to 5 μM in MEM supplemented with 10% FBS and 1% penicillin-streptomycin. Cells were incubated with each conjugate at a concentration of 5 μM for 22 hours at 37° C. and 5% CO2. Next, the treatment media was aspirated the cells were incubated with Trypsin-EDTA 0.25% for 15 min at 37° C. and 5% CO2, washed 1× with PBS, and resuspended in PBS with 2% FBS and 2 μg/mL propidium iodide. Flow cytometry analysis was carried out on a BD LSRII flow cytometer. Gates were applied to the data to ensure that cells that were highly positive for propidium iodide or had forward/side scatter readings that were sufficiently different from the main cell population were excluded. Each sample was capped at 5,000 gated events.

HeLa 654 cells [2] = experiment: HeLa-654 eGFP assay (corrective splicing / exon skipping by PMO IVS2-654); type: cell-based, human; conditions: eGFP fluorescence of PMO-peptide conjugate relative to unconjugated PMO; 5 μM, 22 h
Experimental: With the 36 constructs synthesized, the ability to modulate PMO activity using the modified HeLa cell assay was tested. The HeLa-654 cells were stably transfected to express a nonfluorescent eGFP protein. The eGFP gene is interrupted by a mutant intron from the human β-globin gene (IVS2-654). The insertion alters pre-mRNA splicing to cause retention of a fragment in the mature mRNA that results in a nonfluorescent protein. PMO IVS2-654 base-pairs with the B-globin insertion, modifies mRNA splicing, and thereby leads to expression of fluorescent eGFP.
For treatment, the crude reaction mixture was diluted to 5 μM in media. The concentration of the modular construct was calculated based on the original concentration of the module 1-2 conjugate mixed in the reaction. Using media containing 10% fetal bovine serum (FBS), the cells were treated with each construct for 22 hours, after which the cellular fluorescence was measured by flow cytometry.
From the lists of hundreds of predicted peptide sequences, twenty candidates were selected that varied in length, charge, and predicted activity to synthesize and test. Just as with the PMO-peptide library, the PMO-Mach constructs were first tested for PMO delivery in the HeLa 654 assay at 5 μM in complete media for 22 hours and analyzed by flow cytometry (FIG. 14). Experiments were conducted using three technical triplicates and two or three biological replicates.
as §1
Analysis was conducted using Graphpad Prism 7. For each sample, the mean fluorescence intensity and the number of gated cells was measured (FIGS. 8 and 9) and the intensity multiplied by the cell number was calculated (FIG. 7).

Structure (SMILES) | cytotoxicity as determined by cell count and PI staining (HeLa 654 cells [1]) | FOLD OVER PMO (HeLa 654 cells [2])
CC[C@H](C)[C@H](NC(=O)[C@H](CO)NC(=O)[C@H](CC(C)C)NC(=O)[C@H](CCCCN)NC(=O)CNC(=O)[C@H](CCCCN)NC(=O)[C@@H]1CCCN1C(=O)[C@H](Cc1c[nH]c2ccccc12)NC(=O)[C@H](CC(N)=O)NC(=O)[C@H](CCCCN)NC(=O)[C@H](CCCCN)NC(=O)[C@H](CC(N)=O)NC(=O)[C@H](C)NC(=O)[C@H](CCCCN)NC(=O)[C@H](CO)NC(=O)[C@H](CCCCN)NC(=O)[C@H](CCCNC(=N)N)NC(=O)[C@H](CCCCN)NC(=O)[C@H](CCCCN)NC(=O)[C@H](CCC(N)=O)NC(=O)CCCCn1nnc2c1-c1ccccc1N(C(=O)CCCCC(=O)N1C[C@@H](COP(=O)(N(C)C)N3C[C@@H](COP(=O)(N(C)C)N4C[C@@H](COP(=O)(N(C)C)N5C[C@@H](COP(=O)(N(C)C)N6C[C@@H](COP(=O)(N(C)C)N7C[C@@H](COP(=O)(N(C)C)N8C[C@@H](COP(=O)(N(C)C)N9C[C@@H](COP(=O)(N(C)C)N%10C[C@@H](COP(=O)(N(C)C)N%11C[C@@H](COP(=O)(N(C)C)N%12C[C@@H](COP(=O)(N(C)C)N%13C[C@@H](COP(=O)(N(C)C)N%14C[C@@H](COP(=O)(N(C)C)N%15C[C@@H](COP(=O)(N(C)C)N%16C[C@@H](COP(=O)(N(C)C)N%17C[C@@H](COP(=O)(N(C)C)N%18C[C@@H](COP(=O)(N(C)C)N%19C[C@@H](COP(=O)(N(C)C)N%20CCN(C(=O)OCCOCCOCCO)CC%20)O[C@@H](n%20cnc%21c(=O)[nH]c(N)nc%21%20)C%19)O[C@@H](n%19ccc(N)nc%19=O)C%18)O[C@@H](n%18cc(C)c(=O)[nH]c%18=O)C%17)O[C@@H](n%17cnc%18c(N)ncnc%18%17)C%16)O[C@@H](n%16cc(C)c(=O)[nH]c%16=O)C%15)O[C@@H](n%15cc(C)c(=O)[nH]c%15=O)C%14)O[C@@H](n%14cnc%15c(N)ncnc%15%14)C%13)O[C@@H](n%13ccc(N)nc%13=O)C%12)O[C@@H](n%12ccc(N)nc%12=O)C%11)O[C@@H](n%11cc(C)c(=O)[nH]c%11=O)C%10)O[C@@H](n%10cc(C)c(=O)[nH]c%10=O)C9)O[C@@H](n9cnc%10c(N)ncnc%109)C8)O[C@@H](n8cnc9c(N)ncnc98)C7)O[C@@H](n7ccc(N)nc7=O)C6)O[C@@H](n6ccc(N)nc6=O)C5)O[C@@H](n5ccc(N)nc5=O)C4)O[C@@H](n4cnc5c(N)ncnc54)C3)O[C@@H](n3cnc4c(=O)[nH]c(N)nc43)C1)Cc1ccccc1-2)C(=O)N[C@@H](Cc1c[nH]cn1)C(=O)N[C@@H](C)C(=O)N[C@@H](CCCCN)C(=O)N[C@@H](CC(=O)O)C(=O)N[C@@H](Cc1ccc(O)cc1)C(=O)N[C@@H](CCCCN)C(=O)N[C@@H](CCC(N)=O)C(=O)NCC(=O)N1CCC[C@H]1C(=O)N[C@@H](CCCCN)C(=O)N[C@@H](C)C(=O)N[C@@H](CCCCN)C(=O)NCCCCCC(=O)N[C@@H](CCCNC(=N)N)C(=O)N[C@@H](CCCCN)C(=O)N[C@@H](CCC(N)=O)C(=O)N[C@@H](CCCNC(=N)N)C(=O)NCCCCCC(=O)N[C@@H](CCCNC(=N)N)C(N)=O (stereo partly shown) [MACH 3] | no cytotoxicity | 38
CSCC[C@H](NC(=O)[C@H](CCCCN)NC(=O)[C@H](CC(C)C)NC(=O)[C@H](CC(N)=O)NC(=O)[C@H](CC(N)=O)NC(=O)[C@H](CCCCN)NC(=O)[C@H](CC(C)C)NC(=O)[C@H](CC(N)=O)NC(=O)[C@H](CCCCN)NC(=O)[C@H](CCCCN)NC(=O)[C@H](CCCCN)NC(=O)[C@H](C)NC(=O)[C@H](CC(N)=O)NC(=O)[C@H](CCCNC(=N)N)NC(=O)[C@H](CC(C)C)NC(=O)[C@@H]1CCCN1C(=O)[C@@H]1CCCN1C(=O)CCCCn1nnc2c1-c1ccccc1N(C(=O)CCCCC(=O)N1C[C@@H](COP(=O)(N(C)C)N3C[C@@H](COP(=O)(N(C)C)N4C[C@@H](COP(=O)(N(C)C)N5C[C@@H](COP(=O)(N(C)C)N6C[C@@H](COP(=O)(N(C)C)N7C[C@@H](COP(=O)(N(C)C)N8C[C@@H](COP(=O)(N(C)C)N9C[C@@H](COP(=O)(N(C)C)N%10C[C@@H](COP(=O)(N(C)C)N%11C[C@@H](COP(=O)(N(C)C)N%12C[C@@H](COP(=O)(N(C)C)N%13C[C@@H](COP(=O)(N(C)C)N%14C[C@@H](COP(=O)(N(C)C)N%15C[C@@H](COP(=O)(N(C)C)N%16C[C@@H](COP(=O)(N(C)C)N%17C[C@@H](COP(=O)(N(C)C)N%18C[C@@H](COP(=O)(N(C)C)N%19C[C@@H](COP(=O)(N(C)C)N%20CCN(C(=O)OCCOCCOCCO)CC%20)O[C@@H](n%20cnc%21c(=O)[nH]c(N)nc%21%20)C%19)O[C@@H](n%19ccc(N)nc%19=O)C%18)O[C@@H](n%18cc(C)c(=O)[nH]c%18=O)C%17)O[C@@H](n%17cnc%18c(N)ncnc%18%17)C%16)O[C@@H](n%16cc(C)c(=O)[nH]c%16=O)C%15)O[C@@H](n%15cc(C)c(=O)[nH]c%15=O)C%14)O[C@@H](n%14cnc%15c(N)ncnc%15%14)C%13)O[C@@H](n%13ccc(N)nc%13=O)C%12)O[C@@H](n%12ccc(N)nc%12=O)C%11)O[C@@H](n%11cc(C)c(=O)[nH]c%11=O)C%10)O[C@@H](n%10cc(C)c(=O)[nH]c%10=O)C9)O[C@@H](n9cnc%10c(N)ncnc%109)C8)O[C@@H](n8cnc9c(N)ncnc98)C7)O[C@@H](n7ccc(N)nc7=O)C6)O[C@@H](n6ccc(N)nc6=O)C5)O[C@@H](n5ccc(N)nc5=O)C4)O[C@@H](n4cnc5c(N)ncnc54)C3)O[C@@H](n3cnc4c(=O)[nH]c(N)nc43)C1)Cc1ccccc1-2)C(=O)N[C@@H](CC(=O)O)C(=O)N1CCC[C@H]1C(=O)N[C@@H](CCCCN)C(=O)N[C@@H](Cc1ccccc1)C(=O)N[C@H](C(=O)N[C@@H](CCCCN)C(=O)N[C@@H](CCCCN)C(=O)N[C@H](C(=O)N[C@@H](CCCCN)C(=O)N[C@@H](CCC(N)=O)C(=O)NCC(=O)N[C@@H](C)C(=O)N[C@@H](CC(C)C)C(=O)N[C@@H](CCCCN)C(=O)N[C@@H](CC(C)C)C(=O)N[C@@H](CC(N)=O)C(=O)N[C@@H](CCCNC(=N)N)C(=O)N[C@@H](CCCNC(=N)N)C(=O)N[C@@H](CCCCN)C(=O)N[C@@H](CCCCN)C(=O)N[C@@H](CC(N)=O)C(=O)N[C@@H](CCCNC(=N)N)C(=O)NCC(=O)N1CCC[C@H]1C(=O)N[C@@H](CCCCN)C(=O)NCC(=O)N1CCC[C@H]1C(=O)NCCCCCC(=O)N[C@@H](CCCCN)C(=O)N[C@@H](Cc1c[nH]cn1)C(=O)N[C@@H](Cc1c[nH]c2ccccc12)C(=O)N[C@H](C(=O)N[C@H](C(N)=O)[C@@H](C)O)[C@@H](C)O)C(C)C)[C@@H](C)O (stereo partly shown) [MACH 2] | no cytotoxicity | 27
